Five substances from PMC12270161 can be followed below.

In one series the test system is P03420. Briefly: SEC; Superdex 200 Increase 10/300 GL, antigens (40 ug) in PBS; percent of total antigen in aggregate, trimer and monomer fractions by area under the curve. (In general: Size exclusion chromatography separates by hydrodynamic size, large species first.)
The target in series [1] is RSV F DsCav1 (pre-fusion stabilised comparator with foldon) (respiratory syncytial virus (RSV) | bacteriophage T4) (UniProt P03420). Described as above.
Series [2] deals with hMPV Fsol (non-stabilised soluble hMPV F, post-fusion control) (human metapneumovirus (hMPV)). The description is as above.
Experiment in series [3]: as above
The target in series [4] is hMPV F DsCavEs2 (pre-fusion stabilised comparator with foldon) (human metapneumovirus (hMPV) | bacteriophage T4). The series is described as above.

For “RSV F DsCav1 (pre-fusion stabilised comparator with foldon)”, the “percent trimer (SEC, area under curve)” value in the series on P03420 is reported as “RSV DSCav1, 69% trimer”.

With “RSV F DsCav1 (pre-fusion stabilised comparator with foldon) (from UniProt P03420 26-524)”, the stoichiometry N (commonly a count of units in the complex or per binding partner) in series [1] was found to be 3.

Take “hMPV Fsol (non-stabilised soluble hMPV F, post-fusion control) (domain or fragment)”: the stoichiometry N in series [2] came out at 3.

Consider “hMPV Fsol (non-stabilised soluble hMPV F, post-fusion control)”, for which the “percent trimer (SEC, area under curve)” value in series [3] is recorded as “hMPV Fsol, 25% aggregate, 19% trimer, 56% monomer”.

With “hMPV F DsCavEs2 (pre-fusion stabilised comparator with foldon)”, the stoichiometry N in series [4] came to 3. The “percent trimer (SEC, area under curve)” value in series [3] was “hMPV DSCavEs2, 54% trimer”.
